# Assay results published in patent US20110166062A1 (INDIANA UNIVERSITY RESEARCH AND TECHNOLOGY, published 2011).
# Bridges are numbered along the chain shown (N, C = ends). Where no end group is shown, it is not given here. [ ]: non-standard residue; d: D form. Aib = CC(C)(N)C(=O)O
# T1: GIP receptor (UniProt P48546 22-466)
# T1 sequence (looked up): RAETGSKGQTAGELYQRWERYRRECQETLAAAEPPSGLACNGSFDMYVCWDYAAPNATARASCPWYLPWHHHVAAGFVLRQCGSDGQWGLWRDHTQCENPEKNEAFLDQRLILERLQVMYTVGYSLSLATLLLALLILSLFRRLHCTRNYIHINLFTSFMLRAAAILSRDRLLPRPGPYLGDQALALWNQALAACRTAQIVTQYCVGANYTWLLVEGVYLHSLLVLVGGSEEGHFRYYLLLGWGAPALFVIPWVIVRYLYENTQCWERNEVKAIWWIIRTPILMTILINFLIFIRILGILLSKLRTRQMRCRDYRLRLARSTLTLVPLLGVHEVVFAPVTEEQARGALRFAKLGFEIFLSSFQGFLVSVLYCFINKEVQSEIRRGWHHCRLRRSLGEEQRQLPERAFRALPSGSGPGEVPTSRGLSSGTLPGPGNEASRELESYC
# How the values were obtained:
# Experiment in all cases: cell-based or functional assay
# glucagon receptor = glucagon receptor (UniProt P47871 26-477, limits assumed)
# GIP receptor = target: T1, GIP receptor
# GLP-1 receptor = GLP-1 receptor (UniProt P43220 24-463, limits assumed)
# glucagon receptor, sequence (P47871 26-477 limits assumed): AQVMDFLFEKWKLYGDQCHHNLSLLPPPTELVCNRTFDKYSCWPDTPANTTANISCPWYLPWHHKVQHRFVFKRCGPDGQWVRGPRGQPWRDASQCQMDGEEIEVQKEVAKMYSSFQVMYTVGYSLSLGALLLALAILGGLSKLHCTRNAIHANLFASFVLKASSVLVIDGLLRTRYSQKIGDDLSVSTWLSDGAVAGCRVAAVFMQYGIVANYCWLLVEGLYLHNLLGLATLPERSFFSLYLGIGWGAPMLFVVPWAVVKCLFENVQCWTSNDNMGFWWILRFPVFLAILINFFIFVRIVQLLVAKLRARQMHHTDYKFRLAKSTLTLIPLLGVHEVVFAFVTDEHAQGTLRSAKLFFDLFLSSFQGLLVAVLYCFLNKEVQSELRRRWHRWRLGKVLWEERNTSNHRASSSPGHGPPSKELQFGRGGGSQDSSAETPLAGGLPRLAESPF
EC50 (glucagon receptor),relative activity (glucagon receptor),EC50 (GIP receptor),relative activity (GIP receptor),EC50 (GLP-1 receptor),relative activity (GLP-1 receptor),Binder
957 nM,0.01%,0.196 nM,25%,2.82 nM,1.42%,YAEGTFTSDYSIYMDEIHQKDFVNWLLAQ-NH2 (lactam 16-20; N-terminus assumed; SMILES CC[C@H](C)[C@H](NC(=O)[C@H](CO)NC(=O)[C@H](Cc1ccc(O)cc1)NC(=O)[C@H](CC(=O)O)NC(=O)[C@H](CO)NC(=O)[C@@H](NC(=O)[C@H](Cc1ccccc1)NC(=O)[C@@H](NC(=O)CNC(=O)[C@H](CCC(=O)O)NC(=O)[C@H](C)NC(=O)[C@@H](N)Cc1ccc(O)cc1)[C@@H](C)O)[C@@H](C)O)C(=O)N[C@@H](Cc1ccc(O)cc1)C(=O)N[C@@H](CCSC)C(=O)N[C@@H](CC(=O)O)C(=O)N[C@H]1CCC(=O)NCCCC[C@@H](C(=O)N[C@@H](CC(=O)O)C(=O)N[C@@H](Cc2ccccc2)C(=O)N[C@H](C(=O)N[C@@H](CC(N)=O)C(=O)N[C@@H](Cc2c[nH]c3ccccc23)C(=O)N[C@@H](CC(C)C)C(=O)N[C@@H](CC(C)C)C(=O)N[C@@H](C)C(=O)N[C@@H](CCC(N)=O)C(N)=O)C(C)C)NC(=O)[C@H](CCC(N)=O)NC(=O)[C@H](Cc2c[nH]cn2)NC(=O)[C@H]([C@@H](C)CC)NC1=O) [mt-98]
61.7 nM,0.29%,0.058 nM,84.5%,92.9 nM,0.04%,YAEGTFISDYSIAMDEIHQKDFVNWLLAQ-NH2 (lactam 16-20; N-terminus assumed; SMILES CC[C@H](C)[C@H](NC(=O)[C@H](CO)NC(=O)[C@H](Cc1ccc(O)cc1)NC(=O)[C@H](CC(=O)O)NC(=O)[C@H](CO)NC(=O)[C@@H](NC(=O)[C@H](Cc1ccccc1)NC(=O)[C@@H](NC(=O)CNC(=O)[C@H](CCC(=O)O)NC(=O)[C@H](C)NC(=O)[C@@H](N)Cc1ccc(O)cc1)[C@@H](C)O)[C@@H](C)CC)C(=O)N[C@@H](C)C(=O)N[C@@H](CCSC)C(=O)N[C@@H](CC(=O)O)C(=O)N[C@H]1CCC(=O)NCCCC[C@@H](C(=O)N[C@@H](CC(=O)O)C(=O)N[C@@H](Cc2ccccc2)C(=O)N[C@H](C(=O)N[C@@H](CC(N)=O)C(=O)N[C@@H](Cc2c[nH]c3ccccc23)C(=O)N[C@@H](CC(C)C)C(=O)N[C@@H](CC(C)C)C(=O)N[C@@H](C)C(=O)N[C@@H](CCC(N)=O)C(N)=O)C(C)C)NC(=O)[C@H](CCC(N)=O)NC(=O)[C@H](Cc2c[nH]cn2)NC(=O)[C@H]([C@@H](C)CC)NC1=O) [mt-96]
2 nM,13%,,,0.13 nM,38.5%,HSQGTFTSDYSKYLDEIHQKEFIAWLLAQ-NH2 [mt-66]
165 nM,0.11%,,,264 nM,0.02%,YAEGTFISDYSIAMDKIHQQDFVNWLLAQ-NH2 [mt-106]
1460 nM,0.01%,0.016 nM,306%,552 nM,0.01%,YXEGTFISDYSIAMDKIHQQDFVNWLLAQKGKKNWLKHNITQ (C-terminal amide) [mt-100]
23300 nM,0%,0.049 nM,100%,4550 nM,0%,YAEGTFISDYSIAMDKIHQQDFVNWLLAQKGKKNWLKHNITQ-NH2 [mt-99]
0.45 nM,42.2%,5.18 nM,1.6%,0.1 nM,40%,HSQGTFTSDYSIYLDEIHQKEFIAWLMNT-NH2 (lactam 16-20; N-terminus assumed; SMILES CC[C@H](C)[C@H](NC(=O)[C@H](Cc1ccccc1)NC(=O)[C@H](CCC(=O)O)NC(=O)[C@@H]1CCCCNC(=O)CC[C@H](NC(=O)[C@H](CC(=O)O)NC(=O)[C@H](CC(C)C)NC(=O)[C@H](Cc2ccc(O)cc2)NC(=O)[C@@H](NC(=O)[C@H](CO)NC(=O)[C@H](Cc2ccc(O)cc2)NC(=O)[C@H](CC(=O)O)NC(=O)[C@H](CO)NC(=O)[C@@H](NC(=O)[C@H](Cc2ccccc2)NC(=O)[C@@H](NC(=O)CNC(=O)[C@H](CCC(N)=O)NC(=O)[C@H](CO)NC(=O)[C@@H](N)Cc2c[nH]cn2)[C@@H](C)O)[C@@H](C)O)[C@@H](C)CC)C(=O)N[C@@H]([C@@H](C)CC)C(=O)N[C@@H](Cc2c[nH]cn2)C(=O)N[C@@H](CCC(N)=O)C(=O)N1)C(=O)N[C@@H](C)C(=O)N[C@@H](Cc1c[nH]c2ccccc12)C(=O)N[C@@H](CC(C)C)C(=O)N[C@@H](CCSC)C(=O)N[C@@H](CC(N)=O)C(=O)N[C@H](C(N)=O)[C@@H](C)O) [mt-62]
280 nM,0.04%,0.465 nM,10.5%,48.9 nM,0.08%,HAEGTFISDYSIAMDEIHQKDFVNWLLAQ-NH2 (lactam 16-20; N-terminus assumed; SMILES CC[C@H](C)[C@H](NC(=O)[C@H](CO)NC(=O)[C@H](Cc1ccc(O)cc1)NC(=O)[C@H](CC(=O)O)NC(=O)[C@H](CO)NC(=O)[C@@H](NC(=O)[C@H](Cc1ccccc1)NC(=O)[C@@H](NC(=O)CNC(=O)[C@H](CCC(=O)O)NC(=O)[C@H](C)NC(=O)[C@@H](N)Cc1c[nH]cn1)[C@@H](C)O)[C@@H](C)CC)C(=O)N[C@@H](C)C(=O)N[C@@H](CCSC)C(=O)N[C@@H](CC(=O)O)C(=O)N[C@H]1CCC(=O)NCCCC[C@@H](C(=O)N[C@@H](CC(=O)O)C(=O)N[C@@H](Cc2ccccc2)C(=O)N[C@H](C(=O)N[C@@H](CC(N)=O)C(=O)N[C@@H](Cc2c[nH]c3ccccc23)C(=O)N[C@@H](CC(C)C)C(=O)N[C@@H](CC(C)C)C(=O)N[C@@H](C)C(=O)N[C@@H](CCC(N)=O)C(N)=O)C(C)C)NC(=O)[C@H](CCC(N)=O)NC(=O)[C@H](Cc2c[nH]cn2)NC(=O)[C@H]([C@@H](C)CC)NC1=O) [mt-95]
799 nM,0.02%,,,98.4 nM,0.06%,Y[Aib]EGTFISDYSIAMDKIHQQDFVCWLLAQKGKKNWLKHNITQ-NH2 [mt-102]
3 nM,,,,0.04 nM,,"HSQGTFTSDYSIYLDEKHQKEFIAWLLAQ-NH2 (lactam 16-20, 17-21; N-terminus assumed; SMILES CC[C@H](C)[C@H](NC(=O)[C@H](Cc1ccccc1)NC(=O)[C@@H]1CCC(=O)NCCCC[C@@H]2NC(=O)[C@@H](NC(=O)[C@H](CC(=O)O)NC(=O)[C@H](CC(C)C)NC(=O)[C@H](Cc3ccc(O)cc3)NC(=O)[C@@H](NC(=O)[C@H](CO)NC(=O)[C@H](Cc3ccc(O)cc3)NC(=O)[C@H](CC(=O)O)NC(=O)[C@H](CO)NC(=O)[C@@H](NC(=O)[C@H](Cc3ccccc3)NC(=O)[C@@H](NC(=O)CNC(=O)[C@H](CCC(N)=O)NC(=O)[C@H](CO)NC(=O)[C@@H](N)Cc3c[nH]cn3)[C@@H](C)O)[C@@H](C)O)[C@@H](C)CC)CCC(=O)NCCCC[C@H](NC(=O)[C@H](CCC(N)=O)NC(=O)[C@H](Cc3c[nH]cn3)NC2=O)C(=O)N1)C(=O)N[C@@H](C)C(=O)N[C@@H](Cc1c[nH]c2ccccc12)C(=O)N[C@@H](CC(C)C)C(=O)N[C@@H](CC(C)C)C(=O)N[C@@H](C)C(=O)N[C@@H](CCC(N)=O)C(N)=O) [mt-93]"
4.08 nM,3.19%,1.75 nM,2.81%,2.36 nM,1.27%,HAEGTFTSDYSIYMDEIHQKDFVNWLLAQ-NH2 (lactam 16-20; N-terminus assumed; SMILES CC[C@H](C)[C@H](NC(=O)[C@H](CO)NC(=O)[C@H](Cc1ccc(O)cc1)NC(=O)[C@H](CC(=O)O)NC(=O)[C@H](CO)NC(=O)[C@@H](NC(=O)[C@H](Cc1ccccc1)NC(=O)[C@@H](NC(=O)CNC(=O)[C@H](CCC(=O)O)NC(=O)[C@H](C)NC(=O)[C@@H](N)Cc1c[nH]cn1)[C@@H](C)O)[C@@H](C)O)C(=O)N[C@@H](Cc1ccc(O)cc1)C(=O)N[C@@H](CCSC)C(=O)N[C@@H](CC(=O)O)C(=O)N[C@H]1CCC(=O)NCCCC[C@@H](C(=O)N[C@@H](CC(=O)O)C(=O)N[C@@H](Cc2ccccc2)C(=O)N[C@H](C(=O)N[C@@H](CC(N)=O)C(=O)N[C@@H](Cc2c[nH]c3ccccc23)C(=O)N[C@@H](CC(C)C)C(=O)N[C@@H](CC(C)C)C(=O)N[C@@H](C)C(=O)N[C@@H](CCC(N)=O)C(N)=O)C(C)C)NC(=O)[C@H](CCC(N)=O)NC(=O)[C@H](Cc2c[nH]cn2)NC(=O)[C@H]([C@@H](C)CC)NC1=O) [mt-97]
